Test results published in the supplement of paper PMC10126150.
± gives the standard deviation of the averaged measurements.

Tested on: ATP
Test: switch fluorescence ratio, 500 uM ATP over buffer (Cy3 cluster intensity, sum of 5 cycles each) (fold (ratio)); higher = stronger signal-on switching upon ATP binding; sequences stand for … in TCGTCGGCAGCGTCAGATGTGTATAAGAGACAGTTTTTTTTTTTTTTTTTTTTTTTTT…TC
Details: aptamer strand: ATP DNA aptamer (quencher-CACCTGGGGGAGTATTGCGGAGGAAGG + anchor), 100 nM annealed; ATP concentration: 500 uM
In short: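 Clusters with intensities outside 100-1000 RFU were excluded. The remaining Cy3-labelled switching-strand clusters on a modified Illumina MiSeq flow-cell had been annealed to 100 nM quencher-labelled ATP aptamer and imaged in selection buffer, then after 15 min with 500 uM ATP at 22 °C, for five cycles separated by NaOH stripping and re-annealing. The fluorescence ratio, averaged per switch-domain sequence, is each cluster's summed target-cycle Cy3 intensity over its summed buffer-cycle Cy3 intensity.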
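Also: ATP exposure 15 min at 22 °C before imaging.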

Row | Sequence | switch fluorescence ratio
1 | AAAAAAAAGA | 0.996 ± 0.048
2 | AAAAAAAAGG | 1 ± 0.05
3 | AAAAAAAGCG | 0.979 ± 0.058
4 | AAAAAACGTG | 1.06 ± 0.091
5 | AAAAAAGAAT | 0.9938 ± 0.0096
6 | AAAAAAGGAC | 1.03 ± 0.044
7 | AAAAAATCGG | 1 ± 0.019
8 | AAAAAATGGG | 1.01 ± 0.012
9 | AAAAACACCG | 1.09 ± 0.078
10 | AAAAACGGCT | 0.99 ± 0.017
11 | AAAAACGTCA | 1.003 ± 0.0045
12 | AAAAACTGAA | 1.01 ± 0.02
13 | AAAAAGAAAG | 1.02 ± 0.022
14 | AAAAAGATTT | 1.05 ± 0.081
15 | AAAAAGCTTT | 1.026 ± 0.0047
16 | AAAAAGGAGG | 1 ± 0.015
17 | AAAAAGGCTA | 1.03 ± 0.017
18 | AAAAAGTCGC | 0.961 ± 0.022
19 | AAAAAGTGGT | 0.9827 ± 0.0041
20 | AAAAATACGG | 0.965 ± 0.057
21 | AAAAATATGA | 1.01 ± 0.053
22 | AAAAATGAGA | 0.998 ± 0.043
23 | AAAAATGTTG | 1 ± 0.053
24 | AAAAATTCCG | 1.045 ± 0.0036
25 | AAAACACAGA | 1.15 ± 0.14

Row | Sequence | switch fluorescence ratio
26 | AAAACACGTA | 1.13 ± 0.035
27 | AAAACGCGGT | 1.2 ± 0.042
28 | AAAACGGAGA | 1.02 ± 0.014
29 | AAAAGAGGTG | 1.08 ± 0.034
30 | AAAAGATAAA | 0.977 ± 0.023
31 | AAAAGCAGGG | 1 ± 0.014
32 | AAAAGCGGAT | 1.025 ± 0.0063
33 | AAAAGCGTTG | 0.999 ± 0.013
34 | AAAAGGAGTT | 0.998 ± 0.016
35 | AAAAGGCCGT | 1.02 ± 0.0058
36 | AAAAGGCGGT | 1.01 ± 0.012
37 | AAAAGGGATT | 0.98 ± 0.012
38 | AAAAGGGGCA | 1.04 ± 0.051
39 | AAAAGGGTA | 0.957 ± 0.048
40 | AAAAGGTCAG | 1.01 ± 0.021
41 | AAAAGTAACC | 0.993 ± 0.026
42 | AAAAGTAGGA | 0.984 ± 0.065
43 | AAAAGTATAA | 1.03 ± 0.036
44 | AAAAGTTGGT | 1.02 ± 0.083
45 | AAAAGTTTGT | 1 ± 0.032
46 | AAAATAAGGC | 0.981 ± 0.03
47 | AAAATAATTC | 1 ± 0.059
48 | AAAATATAGA | 0.9798 ± 0.0025
49 | AAAATCAGCC | 1.07 ± 0.053
50 | AAAATCAGGC | 0.944 ± 0.085

Row | Sequence | switch fluorescence ratio
51 | AAAATCGGGA | 1 ± 0.035
52 | AAAATCTGCG | 1.03 ± 0.041
53 | AAAATCTTGT | 1.04 ± 0.0066
54 | AAAATGCGGT | 0.996 ± 0.015
55 | AAAATGCGTT | 1.02 ± 0.029
56 | AAAATGGCCA | 1.02 ± 0.083
57 | AAAATGGGCC | 0.963 ± 0.033
58 | AAAATGGGGC | 1 ± 0.037
59 | AAAATGTCGG | 0.998 ± 0.012
60 | AAAATGTTTT | 1.02 ± 0.031
61 | AAAATTATC | 0.997 ± 0.019
62 | AAAATTCGTA | 1.028 ± 0.0022
63 | AAAATTTAAC | 1.01 ± 0.023
64 | AAAATTTCAA | 1.011 ± 0.0042
65 | AAAATTTGTT | 1 ± 0.015
66 | AAAATTTTGG | 1 ± 0.043
67 | AAACACAGGG | 1.07 ± 0.063
68 | AAACAGGGGG | 0.982 ± 0.028
69 | AAACAGTAGA | 1.07 ± 0.042
70 | AAACATTTTG | 1.02 ± 0.036
71 | AAACCGACAT | 1.27 ± 0.03
72 | AAACCGGAAC | 2.26 ± 0.1
73 | AAACCGGGAC | 1.55 ± 0.15
74 | AAACCTATGG | 0.986 ± 0.055
75 | AAACGAAAAA | 1.04 ± 0.044

Row | Sequence | switch fluorescence ratio
76 | AAACGAATGG | 0.981 ± 0.022
77 | AAACGCTGGT | 1.01 ± 0.0087
78 | AAACGGAGGG | 0.996 ± 0.038
79 | AAACGGCATC | 1.073 ± 0.0074
80 | AAACGGGCGG | 0.996 ± 0.045
81 | AAACGGGGAG | 0.991 ± 0.021
82 | AAACGGGGAT | 0.992 ± 0.011
83 | AAACGTAATA | 1.31 ± 0.014
84 | AAACGTCCT | 1.07 ± 0.012
85 | AAACTAAAAA | 1 ± 0.033
86 | AAACTAAGTT | 1.041 ± 0.008
87 | AAACTGGGGC | 1.12 ± 0.022
88 | AAACTGGGGT | 0.999 ± 0.0016
89 | AAACTTAAGA | 0.996 ± 0.049
90 | AAACTTAGC | 1.03 ± 0.065
91 | AAAGAAACTC | 1.47 ± 0.7
92 | AAAGAAAGGG | 1 ± 0.029
93 | AAAGAAATTC | 1.02 ± 0.068
94 | AAAGAATGGT | 0.991 ± 0.054
95 | AAAGAATTCG | 0.974 ± 0.037
96 | AAAGACATCT | 1.02 ± 0.095
97 | AAAGACGACA | 1.27 ± 0.29
98 | AAAGAGGAGG | 0.984 ± 0.036
99 | AAAGAGGCTT | 0.983 ± 0.039
100 | AAAGAGGTTC | 1.04 ± 0.068

Row | Sequence | switch fluorescence ratio
101 | AAAGATATCT | 0.979 ± 0.022
102 | AAAGATTTTT | 0.9851 ± 0.0092
103 | AAAGCCGATG | 1 ± 0.012
104 | AAAGCCGGTA | 1.01 ± 0.084
105 | AAAGCGGGTC | 1.04 ± 0.015
106 | AAAGCGGTTA | 1.007 ± 0.006
107 | AAAGCGTGCG | 0.964 ± 0.022
108 | AAAGCTGAAT | 0.992 ± 0.0057
109 | AAAGCTGTAG | 1.02 ± 0.038
110 | AAAGCTGTTT | 1.02 ± 0.014
111 | AAAGGAACTC | 0.999 ± 0.092
112 | AAAGGACACA | 1.061 ± 0.01
113 | AAAGGATGTT | 0.995 ± 0.041
114 | AAAGGCCCCC | 1.0047 ± 0.00068
115 | AAAGGCGAGG | 0.957 ± 0.015
116 | AAAGGCTGAA | 1.03 ± 0.048
117 | AAAGGCTGGG | 1.04 ± 0.087
118 | AAAGGGAAAC | 1.2 ± 0.28
119 | AAAGGGAAGG | 1.01 ± 0.018
120 | AAAGGGAAGT | 0.983 ± 0.048
121 | AAAGGGAAT | 1.02 ± 0.021
122 | AAAGGGCATG | 1 ± 0.011
123 | AAAGGGGAGG | 1.01 ± 0.033
124 | AAAGGGGGAA | 0.998 ± 0.026
125 | AAAGGGGGT | 1.01 ± 0.026

Row | Sequence | switch fluorescence ratio
126 | AAAGGGGGTG | 1.02 ± 0.047
127 | AAAGGGGTAG | 0.9975 ± 0.0069
128 | AAAGGGTACT | 1.08 ± 0.064
129 | AAAGGGTTGT | 1.009 ± 0.009
130 | AAAGGTGTTG | 1.16 ± 0.23
131 | AAAGGTTAAG | 0.991 ± 0.015
132 | AAAGGTTAGG | 0.958 ± 0.029
133 | AAAGGTTTCG | 0.989 ± 0.015
134 | AAAGGTTTTG | 1 ± 0.02
135 | AAAGTAATGG | 1.04 ± 0.022
136 | AAAGTAGAGG | 0.969 ± 0.029
137 | AAAGTAGGCT | 1.01 ± 0.053
138 | AAAGTATGCT | 0.9898 ± 0.0015
139 | AAAGTATTAA | 1.014 ± 0.0026
140 | AAAGTCAAGG | 0.9933 ± 0.0029
141 | AAAGTCTAGC | 1.01 ± 0.019
142 | AAAGTGAGGG | 0.986 ± 0.013
143 | AAAGTGATAT | 1.01 ± 0.028
144 | AAAGTGCTCT | 0.981 ± 0.038
145 | AAAGTGTACG | 0.999 ± 0.03
146 | AAAGTTAAGT | 0.976 ± 0.0036
147 | AAAGTTAGGG | 1.01 ± 0.038
148 | AAAGTTGCGG | 1.016 ± 0.0045
149 | AAAGTTGGAT | 0.977 ± 0.012
150 | AAAGTTTCGC | 1 ± 0.019

Row | Sequence | switch fluorescence ratio
151 | AAAGTTTGAC | 1 ± 0.035
152 | AAATAAAATG | 0.932 ± 0.11
153 | AAATAAAATT | 0.982 ± 0.03
154 | AAATAACTGA | 0.994 ± 0.029
155 | AAATAAGTGA | 0.979 ± 0.013
156 | AAATACGGTG | 1.17 ± 0.16
157 | AAATATACGA | 1.16 ± 0.15
158 | AAATATATGT | 0.997 ± 0.046
159 | AAATATGGTT | 1.02 ± 0.035
160 | AAATCACGTA | 1.1818 ± 4.2e-05
161 | AAATCGATGT | 1 ± 0.02
162 | AAATCGGCTC | 0.989 ± 0.025
163 | AAATCTCATC | 1.03 ± 0.014
164 | AAATGAAGGG | 1 ± 0.058
165 | AAATGACGGG | 1.005 ± 0.0076
166 | AAATGAGTAG | 1.02 ± 0.013
167 | AAATGAGTTT | 1.02 ± 0.013
168 | AAATGATAAG | 0.998 ± 0.021
169 | AAATGCTATA | 1.01 ± 0.022
170 | AAATGCTTCA | 1.03 ± 0.019
171 | AAATGCTTTA | 1.03 ± 0.022
172 | AAATGGCCAC | 1.01 ± 0.035
173 | AAATGGGACC | 1.012 ± 0.0042
174 | AAATGGGCTG | 1 ± 0.09
175 | AAATGGTACT | 1.01 ± 0.035

Row | Sequence | switch fluorescence ratio
176 | AAATGGTCT | 1.016 ± 0.01
177 | AAATGTAAGG | 0.99 ± 0.034
178 | AAATGTGGAG | 0.984 ± 0.021
179 | AAATGTTAAG | 1.01 ± 0.032
180 | AAATGTTTGC | 1.01 ± 0.018
181 | AAATTAAGGA | 1.01 ± 0.031
182 | AAATTAATCC | 1.04 ± 0.038
183 | AAATTAATTG | 1.02 ± 0.036
184 | AAATTACATT | 1.02 ± 0.021
185 | AAATTATCCA | 1.016 ± 0.0092
186 | AAATTCGACG | 1.05 ± 0.046
187 | AAATTTAGGT | 1.01 ± 0.038
188 | AAATTTCATA | 1.03 ± 0.01
189 | AAATTTGGTG | 1.14 ± 0.14
190 | AAATTTTAGG | 1.034 ± 0.0013
191 | AAATTTTTAG | 1.02 ± 0.018
192 | AAATTTTTGC | 1.05 ± 0.015
193 | AAATTTTTGT | 1.001 ± 0.0065
194 | AACAAACGGT | 1.36 ± 0.057
195 | AACAAATGGG | 1.02 ± 0.052
196 | AACAAGGGGA | 1.07 ± 0.067
197 | AACAAGTATG | 1 ± 0.044
198 | AACAATTATA | 1.011 ± 0.0078
199 | AACACGGCTG | 1.05 ± 0.027
200 | AACACTGATT | 1.04 ± 0.026
